Laboratory results taken from patent publication US20210054355A1 (NEW YORK UNIVERSITY, published 2021).
Changes are numbered by the printed parent chain. Names may count otherwise.

How the values were obtained:
[1] = biological target: T1, FGFR1c^ecto/ΔSLBS′ (FGFR1c^ecto carrying V221D) (human, UniProt P11362 142-365); experiment: SEC-MALS, 1:1:1 ternary complex with FGF23 and αKlotho^ecto
T1 construct: also called FGFR1c^ΔSLBS′
T1 sequence: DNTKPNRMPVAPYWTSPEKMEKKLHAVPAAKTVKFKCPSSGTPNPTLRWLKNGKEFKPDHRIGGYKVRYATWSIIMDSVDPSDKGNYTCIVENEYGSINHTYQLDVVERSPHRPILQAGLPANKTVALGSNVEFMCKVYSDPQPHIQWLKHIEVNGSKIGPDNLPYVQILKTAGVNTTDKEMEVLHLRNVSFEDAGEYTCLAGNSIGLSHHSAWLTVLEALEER
Experimental: (§1) A Superdex 200 10/300 GL column (GE Healthcare, USA) was placed in-line between the HPLC pump (Waters 1525) and the HPLC UV (Waters 2998 Photodiode Array), laser light scattering, and refractive index detectors. Light scattering and refractive index detectors were calibrated following the manufacturer's guidelines. The refractive index increment (dn/dc) in which n is the refractive index and c is the concentration of the mixture of DDM and CHS in 20 mM Tris-HCl pH 8.0 buffer containing 300 mM NaCl, was determined offline using an Optilab T-rEX refractive index detector. Monomeric bovine serum albumin (#23210, Thermo Scientific, USA) was used as part of routine data quality control.
(§2) 60 ml or more of 25 mM HEPES pH 7.5 buffer containing 150 mM NaCl were passed through the system at a flow rate of 0.5 mL/min to equilibrate the Superdex 200 10/300 GL column and establish stable baselines for light scattering and refractive index detectors. Purified αKlotho^ecto, FGER1c^ecto (wild type or mutant), and FGF23 (wild type or mutant) proteins were mixed at a molar ratio of 1:1:1 and concentrated to 12.5 μM. 50 μl of protein samples with a molar equivalent of a heparin hexasaccharide (#H006, Iduron, Manchester, U.K.) were injected onto the gel filtration column, and the column eluent was continuously monitored for 280 nm absorbance, laser light scattering, and refractive index. In a separate set of experiments, 50 μl of 1:1:1 FGF23-FGFR1c^ecto-αKlotho^ecto ternary complex at 12.5 μM concentration was mixed with heparin hexasaccharide at molar ratios of 1:0.25, 1:0.5, 1:1, or 1:2, and the mixtures were injected onto the gel filtration column. 50 μl of ternary complex without added heparin hexasaccharide were run as a control. In yet another set of experiments, αKlotho^ecto (wild type or mutant) and FGER1c^ecto were mixed at a molar ratio of 1:1, and 50 μl of concentrated protein mixtures were injected onto the gel filtration column. 50 μl of concentrated αKlotho^ecto (wild type or mutant) alone were run as a control in these experiments. […]

[2] = biological target: T2, FGFR1c^ecto/ΔSLBS (FGFR1c^ecto carrying I203E) (human, UniProt P11362 142-365); experiment: as above
T2 construct: also called FGFR1c^ΔSLBS
T2 sequence: T1 sequence with I62E, D80V
Experimental: as §1, §2

[3] = biological target: T3, FGFR1c^ecto/ΔRRBS (FGFR1c^ecto carrying A171D) (human, UniProt P11362 142-365); experiment: as above
T3 construct: also called FGFR1^ΔRRBS
T3 sequence: T1 sequence with A30D, D80V
Experimental: as §1, §2

[4] = biological target: T4, Soluble human α-Klotho ectodomain (αKlotho^ecto) (human, UniProt Q9UEF7 34-981); experiment: size-exclusion chromatography of the mixture, with Coomassie-stained SDS-PAGE of the eluted peak fractions [left]
T4 construct: also called wild-type αKlotho^ecto; soluble αKlotho
T4 sequence: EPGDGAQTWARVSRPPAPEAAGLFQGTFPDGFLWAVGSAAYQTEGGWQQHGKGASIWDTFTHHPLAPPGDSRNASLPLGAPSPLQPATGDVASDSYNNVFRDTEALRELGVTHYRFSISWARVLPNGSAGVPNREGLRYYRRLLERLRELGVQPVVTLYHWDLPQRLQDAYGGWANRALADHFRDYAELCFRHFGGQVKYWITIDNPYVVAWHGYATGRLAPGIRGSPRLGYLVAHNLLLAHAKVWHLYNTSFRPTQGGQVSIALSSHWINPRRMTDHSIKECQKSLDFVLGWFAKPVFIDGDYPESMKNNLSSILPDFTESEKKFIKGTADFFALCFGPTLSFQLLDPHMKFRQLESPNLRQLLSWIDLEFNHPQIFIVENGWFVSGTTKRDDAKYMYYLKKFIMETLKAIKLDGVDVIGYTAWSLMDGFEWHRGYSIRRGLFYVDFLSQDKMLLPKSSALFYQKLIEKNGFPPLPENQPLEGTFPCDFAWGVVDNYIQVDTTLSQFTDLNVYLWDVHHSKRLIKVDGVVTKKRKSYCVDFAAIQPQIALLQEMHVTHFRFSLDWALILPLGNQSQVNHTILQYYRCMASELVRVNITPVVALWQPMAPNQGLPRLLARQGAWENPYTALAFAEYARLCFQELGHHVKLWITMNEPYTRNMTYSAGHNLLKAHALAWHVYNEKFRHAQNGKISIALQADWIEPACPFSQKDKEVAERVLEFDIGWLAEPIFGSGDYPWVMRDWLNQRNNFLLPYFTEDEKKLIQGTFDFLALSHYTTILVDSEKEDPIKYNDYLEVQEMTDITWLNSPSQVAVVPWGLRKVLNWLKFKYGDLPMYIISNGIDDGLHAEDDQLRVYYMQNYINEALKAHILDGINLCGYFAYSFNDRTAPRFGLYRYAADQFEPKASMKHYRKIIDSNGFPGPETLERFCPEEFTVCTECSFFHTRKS

Measured: binding result

B1: FGF23^WT (human FGF23 Y25 to S205 with R176Q/R179Q, protease-resistant minimal protein) (ligand)
chain: YPNASPLLGSSWGGLIHLYTATARNSYHLQIHKNGHVDGAPHQTIYSALMIRSEDAGFVVITGVMSRRYLCMDFRGNIFGSHYFDPENCRFQHQTLENGYDVYHSPQYHFLVSLGRAKRAFLPGMNPPPYSQFLSRRNEIPLIHFNTPIPRQHTQSAEDDSERDPLNVLKPRARMTPAPAS
notes: also called wild-type FGF23; minimal FGF23
binds: all assays above
